The source of these data is patent US20070082400A1.

The test has as its target human CD40L protein translated from transfected CD40L mRNA (pCR2.1 CD40L WT, >100 nucleotide polyA tail) (human) (UniProt P29965). The test is described as follows: cell-based or functional assay.
UniProt P29965, sequence (P29965 whole entry): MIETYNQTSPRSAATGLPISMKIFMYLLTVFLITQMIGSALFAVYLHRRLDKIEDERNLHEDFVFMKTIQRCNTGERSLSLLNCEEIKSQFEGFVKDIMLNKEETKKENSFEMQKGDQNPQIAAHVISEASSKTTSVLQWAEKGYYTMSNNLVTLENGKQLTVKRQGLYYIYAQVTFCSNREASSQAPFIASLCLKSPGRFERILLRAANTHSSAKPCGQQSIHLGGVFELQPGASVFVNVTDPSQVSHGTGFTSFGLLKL

As for “blocking CD40L monoclonal antibody 24-31 (eBioscience)”, the IL-12p70 (pg/ml), 'Cocktail' matured and reactivated DCs co-cultured with CD40L mRNA-transfected HeLa cells plus IFN-gamma plus 24-31 stood at 2.5 pg/mL; the IL-12p70 release by CD40L mRNA-transfected DCs cultured with IFN-gamma and 10 or 50 ug/ml blocking anti-CD40L antibody is 50%.
